Test results taken from US10808009B2, “Peptide conjugates” (BIONIZ, LLC, priority 2011, dated 2020).
No end group written: not given here. MAL‑PEG24 = bi-functional PEG24 molecule (Mal-PEG24)

Assays:
Type in all cases: cell-based
IL-6 = test: T1165 proliferation assay (WST-1), IL-6, dual peptide; conditions: T1165 cells, IL-6 0.1 ng/ml, increasing BNZ132-PEG-130
IL-15 = IL-15 (Homo sapiens, UniProt P40933); test: CTLL2 proliferation assay (WST-1), IL-15, dual peptide; conditions: CTLL2 cells, IL-15 2.5 ng/ml and 5 ng/ml, increasing BNZ132-PEG-130 (0.1-10 uM)
IL-2 = IL-2 (Homo sapiens, UniProt P60568); test: CTLL2 proliferation assay (WST-1), IL-2, dual peptide; conditions: CTLL2 cells, IL-2 5 u/ml and 10 u/ml, increasing BNZ132-PEG-130 (0.1-10 uM)
Sequence of IL-2 (P60568 21-153): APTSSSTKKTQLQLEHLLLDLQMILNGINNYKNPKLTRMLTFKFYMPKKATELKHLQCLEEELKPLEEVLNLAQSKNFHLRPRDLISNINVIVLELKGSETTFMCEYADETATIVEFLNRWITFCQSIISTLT

Sequence of IL-15 (P40933 49-162): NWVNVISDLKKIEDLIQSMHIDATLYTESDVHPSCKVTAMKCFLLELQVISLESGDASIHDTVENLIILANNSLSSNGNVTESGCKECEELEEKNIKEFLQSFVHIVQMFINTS

IKEFLQSFIHIVQSIINT (SEQ ID NO: 130)—MAL-PEG24—SLTHLIERSSRAVLQSLLRASRQ (SEQ ID NO: 131) (linker (positions not given here) via MAL‑PEG24; also: MAL-PEG24 attachment sites not given here) [BNZ132-PEG-130, BNZ132-1 conjugated to BNZ130 via a PEG24 linker; dual peptide antagonist]
inhibited in a dose response manner: inhibition of IL-6-induced proliferation (IL-6) | inhibition of IL-15-induced proliferation (IL-15) | inhibition of IL-2-induced proliferation (IL-2)
